B1: Pistol ribozyme (parent)
chain: GGGUCGUUGUUCCAUAAUCGCGUGGAUAUGGCACGCAAGUUUCUACCGGGCACCGUAAAUGUCCGACUGGAGCCGUUCGGGCGGCUAUAAACAGACCUCAGGCCCGAAGCGUGGCGGCACCUGCCGCCGGUGGUAAAAAAGAUCGGAAGAGCACACGUCU

Variants of: B1
Assay: aptazyme ON/OFF ratio, guanine; higher = stronger switching; co-transcriptional cleavage with and without guanine

Going from GGGUCGACCUUCAAUAAUCGCGUGGAUAUGGCACGCAAGUUUCUACCGGGCACCGUAAAUGUCCGACUGGAGCCGUUCGGGCGGCUAUAAACAGACCUCAGGCCCGAAGCGUGGCGGCACCUGCCGCCGGUGGUAAAAAAGAUCGGAAGAGCACACGUCU [U7A U8C G9C C13A] to GGGUCGACCUUCCAUAAUCGCGUGGAUAUGGCACGCAAGUUUCUACCGGGCACCGUAAAUGUCCGACUGGAGCCGUUCGGGCGGCUAUAAACAGACCUCAGGCCCGAAGCGUGGCGGCACCUGCCGCCGGUGGUAAAAAAGAUCGGAAGAGCACACGUCU [U7A U8C G9C], the “aptazyme ON/OFF ratio” value rises from 1.07 to 1.08.

Compared with GGGUCGACCUUGAAUAAUCGCGUGGAUAUGGCACGCAAGUUUCUACCGGGCACCGUAAAUGUCCGACUGGAGCCGUUCGGGCGGCUAUAAACAGACCUCAGGCCCGAAGCGUGGCGGCACCUGCCGCCGGUGGUAAAAAAGAUCGGAAGAGCACACGUCU [U7A U8C G9C C12G C13A], GGGUCGACCUUGGAUAAUCGCGUGGAUAUGGCACGCAAGUUUCUACCGGGCACCGUAAAUGUCCGACUGGAGCCGUUCGGGCGGCUAUAAACAGACCUCAGGCCCGAAGCGUGGCGGCACCUGCCGCCGGUGGUAAAAAAGAUCGGAAGAGCACACGUCU [U7A U8C G9C C12G C13G] is higher in “aptazyme ON/OFF ratio” value: 1.07 for the first, 1.09 for the second.

First: GGGUCGACCUUGUAUAAUCGCGUGGAUAUGGCACGCAAGUUUCUACCGGGCACCGUAAAUGUCCGACUGGAGCCGUUCGGGCGGCUAUAAACAGACCUCAGGCCCGAAGCGUGGCGGCACCUGCCGCCGGUGGUAAAAAAGAUCGGAAGAGCACACGUCU [U7A U8C G9C C12G C13U]
Second: GGGUCGACCUUUGAUAAUCGCGUGGAUAUGGCACGCAAGUUUCUACCGGGCACCGUAAAUGUCCGACUGGAGCCGUUCGGGCGGCUAUAAACAGACCUCAGGCCCGAAGCGUGGCGGCACCUGCCGCCGGUGGUAAAAAAGAUCGGAAGAGCACACGUCU [U7A U8C G9C C12U C13G]
The “aptazyme ON/OFF ratio” value of the first is higher: 1.18 for the first, 1.06 for the second.

First: GGGUCGACCUUUUAUAAUCGCGUGGAUAUGGCACGCAAGUUUCUACCGGGCACCGUAAAUGUCCGACUGGAGCCGUUCGGGCGGCUAUAAACAGACCUCAGGCCCGAAGCGUGGCGGCACCUGCCGCCGGUGGUAAAAAAGAUCGGAAGAGCACACGUCU [U7A U8C G9C C12U C13U]
Second: GGGUCGACCUUUAAUAAUCGCGUGGAUAUGGCACGCAAGUUUCUACCGGGCACCGUAAAUGUCCGACUGGAGCCGUUCGGGCGGCUAUAAACAGACCUCAGGCCCGAAGCGUGGCGGCACCUGCCGCCGGUGGUAAAAAAGAUCGGAAGAGCACACGUCU [U7A U8C G9C C12U C13A]
The “aptazyme ON/OFF ratio” value of the first is higher: 1.14 for the first, 1.08 for the second.

First: GGGUCGACCUUAUAUAAUCGCGUGGAUAUGGCACGCAAGUUUCUACCGGGCACCGUAAAUGUCCGACUGGAGCCGUUCGGGCGGCUAUAAACAGACCUCAGGCCCGAAGCGUGGCGGCACCUGCCGCCGGUGGUAAAAAAGAUCGGAAGAGCACACGUCU [U7A U8C G9C C12A C13U]
Second: GGGUCGACCUUAGAUAAUCGCGUGGAUAUGGCACGCAAGUUUCUACCGGGCACCGUAAAUGUCCGACUGGAGCCGUUCGGGCGGCUAUAAACAGACCUCAGGCCCGAAGCGUGGCGGCACCUGCCGCCGGUGGUAAAAAAGAUCGGAAGAGCACACGUCU [U7A U8C G9C C12A C13G]
The “aptazyme ON/OFF ratio” value of the first is lower: 1.07 for the first, 1.14 for the second.

Compared with GGGUCGACCUUAAAUAAUCGCGUGGAUAUGGCACGCAAGUUUCUACCGGGCACCGUAAAUGUCCGACUGGAGCCGUUCGGGCGGCUAUAAACAGACCUCAGGCCCGAAGCGUGGCGGCACCUGCCGCCGGUGGUAAAAAAGAUCGGAAGAGCACACGUCU [U7A U8C G9C C12A C13A], GGGUCGACAUGUUAUAAUCGCGUGGAUAUGGCACGCAAGUUUCUACCGGGCACCGUAAAUGUCCGACUGGAGCCGUUCGGGCGGCUAUAAACAGACCUCAGGCCCGAAGCGUGGCGGCACCUGCCGCCGGUGGUAAAAAAGAUCGGAAGAGCACACGUCU [U7A U8C G9A U11G C12U C13U] is higher in “aptazyme ON/OFF ratio” value: 1.11 for the first, 1.32 for the second.

First: GGGUCGACCUUGCAUAAUCGCGUGGAUAUGGCACGCAAGUUUCUACCGGGCACCGUAAAUGUCCGACUGGAGCCGUUCGGGCGGCUAUAAACAGACCUCAGGCCCGAAGCGUGGCGGCACCUGCCGCCGGUGGUAAAAAAGAUCGGAAGAGCACACGUCU [U7A U8C G9C C12G]
Second: GGGUCGACCUUACAUAAUCGCGUGGAUAUGGCACGCAAGUUUCUACCGGGCACCGUAAAUGUCCGACUGGAGCCGUUCGGGCGGCUAUAAACAGACCUCAGGCCCGAAGCGUGGCGGCACCUGCCGCCGGUGGUAAAAAAGAUCGGAAGAGCACACGUCU [U7A U8C G9C C12A]
The “aptazyme ON/OFF ratio” value of the first is lower: 1.09 for the first, 1.12 for the second.

Compared with GGGUCGACCUUUCAUAAUCGCGUGGAUAUGGCACGCAAGUUUCUACCGGGCACCGUAAAUGUCCGACUGGAGCCGUUCGGGCGGCUAUAAACAGACCUCAGGCCCGAAGCGUGGCGGCACCUGCCGCCGGUGGUAAAAAAGAUCGGAAGAGCACACGUCU [U7A U8C G9C C12U], GGGUCGACAUGCUAUAAUCGCGUGGAUAUGGCACGCAAGUUUCUACCGGGCACCGUAAAUGUCCGACUGGAGCCGUUCGGGCGGCUAUAAACAGACCUCAGGCCCGAAGCGUGGCGGCACCUGCCGCCGGUGGUAAAAAAGAUCGGAAGAGCACACGUCU [U7A U8C G9A U11G C13U] is higher in “aptazyme ON/OFF ratio” value: 1.06 for the first, 1.22 for the second.

Compared with GGGUCGACAUGCAAUAAUCGCGUGGAUAUGGCACGCAAGUUUCUACCGGGCACCGUAAAUGUCCGACUGGAGCCGUUCGGGCGGCUAUAAACAGACCUCAGGCCCGAAGCGUGGCGGCACCUGCCGCCGGUGGUAAAAAAGAUCGGAAGAGCACACGUCU [U7A U8C G9A U11G C13A], GGGUCGACAUGCGAUAAUCGCGUGGAUAUGGCACGCAAGUUUCUACCGGGCACCGUAAAUGUCCGACUGGAGCCGUUCGGGCGGCUAUAAACAGACCUCAGGCCCGAAGCGUGGCGGCACCUGCCGCCGGUGGUAAAAAAGAUCGGAAGAGCACACGUCU [U7A U8C G9A U11G C13G] is higher in “aptazyme ON/OFF ratio” value: 1.27 for the first, 1.31 for the second.
